These results are taken from patent US20150246945A1 (JAPANESE FOUNDATION FOR CANCER RESEARCH, published 2015).

Assay [1] has as its target T1, purified EpCAM (extracellular domain with myc and His tags at the C terminus, expressed in HEK-293T cells) (UniProt P16422 24-265, limits assumed).
T1 construct: extracellular domain; also called epithelial cell adhesion molecule; CD326
T1 sequence (looked up): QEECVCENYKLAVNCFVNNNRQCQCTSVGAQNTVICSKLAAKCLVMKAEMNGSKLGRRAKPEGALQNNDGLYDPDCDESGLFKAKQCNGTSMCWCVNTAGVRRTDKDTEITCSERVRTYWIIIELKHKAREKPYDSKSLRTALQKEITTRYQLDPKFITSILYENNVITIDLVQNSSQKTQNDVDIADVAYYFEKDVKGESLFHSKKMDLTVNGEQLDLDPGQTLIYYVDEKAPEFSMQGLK
As to the kind of experiment: fluorescence depolarization, FITC-modified peptide. As for the experimental part:
Each FITC-modified EpCAM peptide or control peptide was suspended at a concentration of approximately 100 μM in PBS. After centrifugation, the supernatant was collected and diluted 10-fold, and the absorbance was measured at 495 nm From the measurement value, the molar concentration of the peptide was determined using the formula of Beer-Lambert of the following expression 1: […]
EpCAM is diluted with PBS into several concentrations from 0 until reaching equilibrium (40 nM for the Ep133 peptide), and the FITC-modified peptide whose precise concentration has been measured by the aforementioned method is added to the dilutions thus prepared. The sample was left at a temperature for measurement for 30 minutes or longer and subjected to polarization measurement using a spectrofluorometer FP-6500 (JASCO Corp.) equipped with an automatic polarization measurement unit (JASCO Corp., APH-103). Kd was estimated by curve fitting according to the Hill equation.
The dissociation constants of the EpCAM-binding peptide Ep301 (FIG. 2(D)) disclosed in Patent Literature 2 and Ep301 control (FIG. 2(E)), which was a control peptide derived from Ep301 by the substitution of cysteine at positions 5 and 10 by serine, and a sequence of EpCAM from residue 106 to 119 (FIG. 2(F)) having partial homology to EpCAM-binding peptides were measured similarly.

In assay [2] the target is T2, EpCAM, whole protein on cells (HT-29, MCF-7, 293T transfected with full-length EpCAM plasmid pkk196) or on … (UniProt P16422 24-314, limits assumed).
T2 construct: whole, on cells; Used for both cell-surface EpCAM and EpCAM carried on HT-29 exosomes; the assay field says which; also called EpCAM on HT-29; EpCAM-expressing cells
T2 sequence (looked up): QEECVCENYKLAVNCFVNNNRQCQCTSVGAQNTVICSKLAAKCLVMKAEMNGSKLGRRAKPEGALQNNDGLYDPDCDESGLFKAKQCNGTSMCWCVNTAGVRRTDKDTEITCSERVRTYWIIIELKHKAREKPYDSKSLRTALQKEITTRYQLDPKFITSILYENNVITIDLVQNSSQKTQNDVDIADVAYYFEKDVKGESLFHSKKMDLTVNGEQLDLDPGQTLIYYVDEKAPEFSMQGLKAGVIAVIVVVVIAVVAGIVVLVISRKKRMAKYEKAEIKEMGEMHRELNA
The assay is described as follows: staining of HT-29 spheroids with FITC peptide, fluorescence microscopy. As for the experimental part: (§1) The HT-29 cells as EpCAM-expressing cells were cultured by spheroid culture method as follows: 4×10⁵ cells are suspended in 3 ml of D-MEM/F-12 medium (Dulbecco's Modified n Eagle Medium:Nutrient Mixture 12, 1:1 mixture) (Gibco/Life Technologies Inc.) supplemented with 20 ng/ml human EGF (Miltenyi Biotec K.K.), 20 ng/ml human […] (Miltenyi Biotec K.K.), B-27 (Gibco/Life Technologies Inc.), penicillin, and streptomycin and inoculated to EZ-Sphere®, a Petri dish of 3.5 cm in diameter coated with MPC polymer. After static culture for 72 hours, the cells were collected while the medium was suspended by pipetting. The cells were stained with the FITC-modified peptide and observed under a fluorescence microscope. The staining was carried out by adding 4 μM peptide into a McCoy's 5A medium and standing still at room temperature for 30 minutes.
When these control peptides were used at a concentration of 4 μM, no EpCAM staining was observed (data not shown).

Assay [3] has as its target T2, EpCAM, whole protein on cells (HT-29, …). The assay is described as follows: staining of HT-29 spheroids with FITC peptide. As for the experimental part: as §1
Next, the results of staining using the L3A variant peptide as a control are shown.

In assay [4] the target is T1, purified EpCAM (extracellular domain …). The assay is described as follows: pull-down of EpCAM on peptide-loaded streptavidin magnetic beads, Western blot. A general note: A western blot detects proteins with antibodies after separation by electrophoresis.
Assay [5] concerns the target T2, EpCAM, whole protein on cells (HT-29, …). As to the kind of experiment: pull-down of HT-29 exosomes on peptide-loaded streptavidin beads, Western blot with anti-EpCAM. As to the method: 250 μg of streptavidin-magnetic beads (Dynabeads® M-280 streptavidin, VERITAS Corp.) in TBS containing 2% BSA was added to 20 μg of the biotinylated Ep114 peptide and shaken at room temperature for 30 minutes, followed by washing with TBS. Beads reacted without the peptide were used as a control. The anti-Ep114 antibody was added to the beads in TBST and reacted at room temperature for 1 hour. After washing with TBS, the beads were collected. The collected beads were heated at 95° C. for 5 minutes in a SDS sample buffer. After Western-blotting, the anti-Ep114 antibody was detected using HRP-labeled anti-rabbit antibodies.
The binding to exosomes was confirmed using the Western blot system in the similar method as in the preceding paragraph 1. Specifically, 20 μg of the biotinylated Ep114 peptide, the PE183 peptide, the PE184 peptide, or the PE185 peptide was bound to 250 μg of streptavidin-magnetic beads and then reacted with exosomes isolated from HT-29 cells as EpCAM-positive cells, followed by Western blot to detect the exosomes using anti-EpCAM polyclonal antibodies (see the left panel of FIG. 5C).

For assay [6], the target named is T1, purified EpCAM (extracellular domain …). As to the kind of experiment: ELISA, biotin peptide on streptavidin plate, purified EpCAM added. As for the experimental part:
was immobilized onto an ELISA plate via streptavidin, and purified EpCAM was added thereto in an amount of 0, 10, or 100 ng and reacted. After washing, bound EpCAM was detected using the anti-EpCAM antibody. A biotin-modified peptide PE194 (Ac-[…](biotin)-NH2) of the L3A variant (non-EpCAM-binding variant) was used as a control.
On the technique in general: In an ELISA, binding on a coated surface is turned into a signal by an enzyme label.

The target is the same in assay [7]. The assay is described as follows: titer of phages bound to EpCAM-immobilized beads (TALON beads; Protein G beads with Vu-1D9), both conditions. As to the method: (§2) Under Condition 1, each phage (in FIG. 1C, rows 1 and 2 represent the Ep133-displaying phage, rows 3 and 4 represent the Ep301-displaying phage, and rows 5 and 6 represent the phage 447 displaying no peptide) was added at a titer of 1×10¹⁰ to 0.4 mg of TALON® beads immobilized 1 μg of EpCAM (FIG. 1C, rows 1, 3, and 5,indicating with plus sign) or the beads alone (FIG. 1C, rows 2, 4, and 6, indicating with minus sign). After washing with TBST five times, the titers of bound phages were measured.
as §2, with “2, 2.4 μg of anti-EpCAM monoclonal antibody (Vu-1D9, Abcam plc.) was immobilized on Protein G beads, and 3 μg of purified EpCAM was immobilized thereon via the antibody. Each” for “1, each”, “the” for “0.4 mg of TALON®”, “immobilized” for “immobilized 1 μg of”, “5, indicating” for “5,indicating with”, “once,” for “five times,”

Ends that are not written are not given here. * marks the point of attachment. Biotin = O=C1N[C@H]2[C@H](CS[C@H]2CCCCC(=O)*)N1

B1: Ep133 control (peptide)
peptide: EHLHSLGSLSWP
modifications: also: FITC-modified, position not given here
notes: Ep133 with cysteine at positions 5 and 10 substituted by serine
For B1, the binding result in assay [1] is “no binding”; in assay [2] it was “no binding (tested: 0.4 µM; also 4 µM (data not shown))”.

B2: L3A variant peptide of Ep114, FITC-labeled (peptide)
peptide: KHAQCVRNICWS
modifications: not fully specified (bridges); cysteine pairing not given here; also: FITC-labeled, position not given here
notes: Free labeled peptide used as a control in cell staining; also called L3A control labeled peptide; control peptide
In the case of B2, the binding result in assay [3] is “no binding”.

B3: PE183 peptide (peptide)
peptide: Ac-KHLQCVRNICWSPPPPPPKK(Biotin)-NH2
modifications: not fully specified (bridges); printed as Ac-KHLQCVRNICWSPPPPPPKK(biotin)-NH2; cysteine pairing not given here
For the molecule B3, the binding result in assay [4] and in assay [5] was “binds” each time.

B4: biotin-modified peptide PE194 of the L3A variant (peptide)
peptide: Ac-KHAQCVRNICWSPPPPPPKK(Biotin)-NH2
modifications: cysteine pairing not given here
notes: L3A control of PE183
As to B4, the binding result in assay [6] was “no binding (tested: 100 ng EpCAM)”.

B5: Ep133-displaying phage (peptide)
chain: EHLHCLGSLCWP
modifications: not fully specified (bridges); cysteine pairing not given here; also: displayed on phage
notes: also called cloned phage displaying Ep133; not shown: fusion and linker not described
Turning to B5, the “fold ability to bind compared with Ep301-displaying phage” value in assay [7] was at least 10 times.

B6: Ep114 control peptide in which cysteine at positions 5 and 10 is substituted by serine (peptide)
peptide: KHLQSVRNISWS
modifications: also: FITC-labeled, position not given here
Regarding B6, the binding result in assay [2] is given as “no binding (tested: 0.4 µM; also 4 µM (data not shown))”.
